According to US7279325B2, “Method for identifying antagonist compounds of the estrogen-related receptor 3 (ERR3) by using the x-ray structural coordinates of the ligand binding domain” (priority 2002, dated 2007):
Substitutions are numbered along the chain they refer to. Names may count otherwise.

T1: ERRα (Homo sapiens, UniProt P11474)
T1 sequence (P11474 1-423): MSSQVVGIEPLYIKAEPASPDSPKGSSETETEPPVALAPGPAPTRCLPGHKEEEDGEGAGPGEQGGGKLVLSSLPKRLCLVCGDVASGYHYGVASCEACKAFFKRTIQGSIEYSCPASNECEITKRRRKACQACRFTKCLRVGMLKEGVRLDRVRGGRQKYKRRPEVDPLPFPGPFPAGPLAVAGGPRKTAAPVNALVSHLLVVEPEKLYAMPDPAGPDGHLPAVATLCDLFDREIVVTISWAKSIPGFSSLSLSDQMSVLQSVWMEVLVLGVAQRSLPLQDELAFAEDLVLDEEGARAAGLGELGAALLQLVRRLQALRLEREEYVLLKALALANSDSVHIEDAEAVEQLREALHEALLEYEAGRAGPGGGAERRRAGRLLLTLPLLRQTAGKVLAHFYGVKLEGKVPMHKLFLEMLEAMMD

T2: His-tagged ERR3 LBD (wild type; residues 229 to 458 of the Estrogen-Related Receptor 3) (human (human and murine receptor are …, UniProt P62508 229-458)
T2 construct: Expressed in E. coli BL21(DE3); Forms a homodimer in the crystal, in gel filtration and in mass spectrometry; SwissProt O75454 is printed for hERR3; also called wt LBD; wt ERR3; not shown: hexahistidine tag from vector pET-15b
T2 sequence: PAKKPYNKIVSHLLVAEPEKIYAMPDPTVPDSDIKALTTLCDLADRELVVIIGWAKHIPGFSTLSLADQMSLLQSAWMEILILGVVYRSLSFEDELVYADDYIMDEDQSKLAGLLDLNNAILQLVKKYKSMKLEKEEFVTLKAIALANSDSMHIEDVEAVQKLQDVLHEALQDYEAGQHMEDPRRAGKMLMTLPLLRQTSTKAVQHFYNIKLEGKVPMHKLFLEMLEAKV

T3: His-tagged ERR3 LBD mutant F435L (human (human and murine receptor are …, UniProt P62508 229-458))
T3 construct: also called ERR3(F435L); PHE435LEU; not shown: hexahistidine tag from vector pET-15b
T3 sequence: T2 sequence with F207L

T4: His-tagged ERR3 LBD mutant L345I (human (human and murine receptor are …, UniProt P62508 229-458))
T4 construct: not shown: hexahistidine tag from vector pET-15b
T4 sequence: T2 sequence with L117I

T5: His-tagged ERR3 LBD mutant A272L (human (human and murine receptor are …, UniProt P62508 229-458))
T5 construct: also called ERR3(A272L); ALA272LEU; not shown: hexahistidine tag from vector pET-15b
T5 sequence: T2 sequence with A44L

T6: His-tagged ERR3 LBD mutant A272F (human (human and murine receptor are …, UniProt P62508 229-458))
T6 construct: also called ERR3(A272F); ALA272PHE; not shown: hexahistidine tag from vector pET-15b
T6 sequence: T2 sequence with A44F

B1: GST-tagged SRC-1 RID (Receptor Interaction Domain of hSRC-1, amino acids 614-764) (other, not shown: a dimerising Fc or GST)
chain: HNNDRLSDGDSKYSQTSHKLVQLLTTTAEQQLRHADIDTSCKDVLSCTGTSNSASANSSGGSCPSSHSSLTERHKILHRLLQEGSPSDITTLSVEPDKKDSASTSVSVTGQVQGNSSIKLELDASKKKESKDHQLLRYLLDKDEKDLRSTP
notes: also called GST-SRC-1 RID; RID of SRC-1
B2: His-tagged ERR3 LBD mutant L345I-F435L-F450L (receptor)
chain: T2 sequence with L117I, F207L, F222L
notes: also called triple point mutation; not shown: hexahistidine tag from vector pET-15b
B3: His-tagged ERR3 LBD mutant L345I-F435L (receptor)
chain: T2 sequence with L117I, F207L
notes: not shown: hexahistidine tag from vector pET-15b
B4: hSRC-1 peptide (SRC-1 NR box 2, amino acids 686-700) (peptide)
peptide: RHKILHRLLQEGSPS
notes: Contains the second LXXLL motif of the RID of SRC-1; also called SRC-1 NR box 2 peptide

Key:
ERRα = molecular target: T1, ERRα; settings: micromolar concentrations; Yang and Chen (1999); cited from earlier work
[1] = molecular target: T2, His-tagged ERR3 LBD (wild type; …); assay: native polyacrylamide gradient gel, no ligand
Description: (§1) After purification the proteins were dialyzed in assay buffer (20 mM Tris.HCl pH 8.0, 200 mM NaCl), and concentrated. […] Protein complexes were resolved on native polyacrylamide gradient gels (8%-25%) using the Phast System (Pharmacia).
(§2) In vitro interaction assays with the RID (amino acids 617-764) of the coactivator SRC-1 has first been performed. […] Complexes were separated on native polyacrylamide gradient gels.

[2] = molecular target: T3, His-tagged ERR3 LBD mutant F435L; assay: native polyacrylamide gradient gel, no ligand
Description: as §1, §2

[3] = molecular target: T4, His-tagged ERR3 LBD mutant L345I; assay: native polyacrylamide gradient gel, no ligand
Description: as §1, §2

[4] = molecular target: T5, His-tagged ERR3 LBD mutant A272L; assay: native polyacrylamide gradient gel, no ligand
Description: as §1, §2

[5] = molecular target: T6, His-tagged ERR3 LBD mutant A272F; assay: native polyacrylamide gradient gel, no ligand
Description: as §1, §2

[6] = molecular target: B1; assay: native polyacrylamide gradient gel, no ligand
Description: as §1, §2

[7] = molecular target: T2, His-tagged ERR3 LBD (wild type; …); assay: crystal structure
Text: A.2 Protein Purification, Crystallization, Data Collection and Processing.

Molecule: ClC1=C(Cl)C2(Cl)C3C(Cl)C(Cl)CC3C1(Cl)C2(Cl)Cl (stereo not shown) [chlordane]
- ERRα basal activity (ERRα): decrease

Molecule: CC1(C)C(C(Cl)Cl)C2(Cl)C(Cl)C(Cl)C1(Cl)C2(Cl)Cl (stereo not shown) [toxaphene]
- ERRα basal activity (ERRα): decrease

Molecule: B1
- binding result [1]: binds
- binding result [2]: binds
- binding result [3]: binds
- binding result [4]: binds
- binding result [5]: binds

Molecule: B2
- binding result [6]: binds

Molecule: B3
- binding result [6]: binds

Molecule: B4
- binding result [7]: binds
